Source: US8604172B2, “Humanized antibody compositions and methods for binding lysophosphatidic acid” (Lpath, Inc., priority 2009, dated 2013)
Read-outs that look alike come from different tables or passages of the source. Marks after values point to notes of the source that are not given here.

How the values were obtained:
[1] = Competition ELISA (18:1 LPA coat), competitor 18:1 LPA; format: binding; conditions: maximum inhibition
Method: Many isoforms of LPA have been identified to be biologically active and it is preferable that the mAb recognize all of them to some extent to be of therapeutic relevance. The specificity of the anti-LPA mAbs was evaluated utilizing a competition assay in which the competitor lipid was added to the antibody-immobilized lipid mixture.
Competition ELISA assays were performed with the anti-LPA mAbs to assess their specificity. 18:1 LPA was captured on ELISA plates. Each competitor lipid (up to 10 uM) was serially diluted in BSA (1 mg/ml)-PBS and then incubated with the mAbs (3 nM). Mixtures were then transferred to LPA coated wells and the amount of bound antibody was measured with a secondary antibody. Data are normalized to maximum signal (A450) and are expressed as percent inhibition. Assays were performed in triplicate. IC50: Half maximum inhibition concentration; MI: Maximum inhibition (% of binding in the absence of inhibitor); - - -: not estimated because of weak inhibition. A high inhibition result indicates recognition of the competitor lipid by the antibody.

[2] = test system: SKOV3 cell migration; test: SKOV3 migration assay; format: cell-based, human; conditions: Lpathomab 150 μg/mL; 1 μM 18:1 LPA; n = 3
[3] = test system: SKOV3 cell invasion; test: SKOV3 invasion assay; format: cell-based, human; conditions: Lpathomab (15 mg/mL); 2 μM 14:0 LPA; n = 2
[4] = test system: SKOV3 cells; test: Taxol-induced apoptosis / caspase activity in SKOV3 cells; format: cell-based, human
Method: The ability of LPA to protect ovarian tumor cells against apoptosis when exposed to clinically-relevant levels of the chemotherapeutic agent, paclitaxel (Taxol) was investigated. […] LPA protected SKOV3 cells from Taxol-induced apoptosis. Apoptosis was assayed by measurement of the caspase activity as recommended by the manufacturer (Promega). As anticipated, LPA protected most of the cancer cell lines tested from taxol-induced cell death. […] Moreover, the anti-LPA antibody was able to remove the protection provided by serum. Serum is estimated to contain about 5-20 uM LPA. […] Taxol-induced caspase activation was enhanced by the addition of LT3000 to the culture medium.

[5] = Surface plasmon resonance, 18:0 LPA on GLC sensor chip; format: binding
Method: All binding data were collected on a ProteOn optical biosensor (BioRad, Hercules Calif.). 12:0 LPA-thiol and 18:0 LPA-thiol were coupled to a maleimide modified GLC sensor chip (Cat. No 176-5011). First, the GLC chip was activated with an equal mixture of sulfo-NHS/EDC for seven minutes followed by a 7 minute blocking step with ethyldiamine. Next sulfo-MBS (Pierce Co., cat #22312) was passed over the surfaces at a concentration of 0.5 mM in HBS running buffer (10 mM HEPES, 150 mM NaCl, 0.005% tween-20, pH 7.4). LPA-thiol was diluted into the HBS running buffer to a concentration of 10, 1 and 0.1 uM and injected for 7 minutes producing 3 different density LPA surfaces (˜100, ˜300 and ˜1400 RU). Next, binding data for the humanized antibodies was collected using a 3-fold dilution series starting with 25 nM as the highest concentration (original stocks were each diluted 1 to 100). Surfaces were regenerated with a 10 second pulse of 100 mM HCl. All data were collected at 25° C. Controls were processed using a reference surface as well as blank injections. […] In order to extract estimates of the binding constants, data from the varying antibody concentrations were globally fit using 1-site and 2-site models. This produced estimates of the affinity for the bivalent (site 1) and monovalent site (site 2).

[6] = Pharmacokinetics of Lpathomab in mice; format: in vivo
Method: Preliminary PK studies were conducted with Lpathomab. For IV dosed groups, mice were injected with a single 30 mg/kg dose and sacrificed at time points up to 15 days. Antibody was also given via i.p. administration and animals were sacrificed during the first 24 hrs to compare levels of mAb in the blood over this period of time for different routes of delivery. Pharmacokinetic parameters were assessed by WinNonlin. Three mice were sacrificed at each time point and plasma samples were collected and analyzed for mAb levels by ELISA.

[7] = test system: renal cell carcinoma (Caki-1) cells; test: Cell monolayer scratch assay, Caki-1; format: cell-based, human; conditions: mAb 10 μg/ml
Method: An important characteristic of metastatic cancers is that the tumor cells escape contact inhibition and migrate away from their tissue of origin. […] Accordingly, we tested the ability of anti-LPA mAb to block LPA-dependent cell migration in several human cancer cell lines by using the cell monolayer scratch assay. Cells were seeded in 96 well plates and grown to confluence. After 24 h of starvation, the center of the wells was scratched with a pipette tip. In this art-accepted “scratch assay,” the cells respond to the scratch wound in the cell monolayer in a stereotypical fashion by migrating toward the scratch and close the wound. Progression of migration and wound closure are monitored by digital photography at 10× magnification at desired timepoints. Cells were not treated (NT), treated with LPA ([…]) with or w/o mAb B7 (10 μg/ml) or an isotype matching non-specific antibody (NS) (10 μg/ml). In untreated cells, a large gap remains between the monolayer margins following the scratch. LPA-treated cells in contrast, have only a small gap remaining at the same timepoint, and a few cells are making contact across the gap.

[8] = test system: B16-F10 murine melanoma; test: B16-F10 murine melanoma experimental lung metastasis; design: species or system C57BL/6 mice; conditions: mouse, in vivo
Method: Study: The highly metastatic murine melanoma (B16-F10) was used to examine the therapeutic effect of anti-LPA mAbs on metastasis in vivo. […] 4 week old female (C57BL/6) mice received an injection of B16-F10 murine melanoma tumor cells (100 uL of 5×10^4 cells/animal) via the tail vein. Mice (10 per group) were administered 25 mg/kg of the anti-LPA mAb (either B3 or B7) or saline every three days by i.p. injection. After 18 days, lungs were harvested and analyzed. The pulmonary organs are the preferred metastatic site of the melanoma cells, and were therefore closely evaluated for metastatic nodules. The lungs were inflated with 10% buffered formalin via the trachea, in order to inflate and fix simultaneously, so that even small foci could be detectable on histological examination. Lungs were separated into five lobes and tumors were categorized by dimension (large >5 mm; medium 1-4 mm; small <1 mm) and counted under a dissecting microscope. […] For animals treated with mAb B3, large tumors were reduced by 21%, medium tumors by 17% and small tumors by 22%. Statistical analysis by student's T-test gave a p<0.05 for number of small tumors in animals treated with mAb B3 vs saline.

[9] = test system: neovascularization; test: Classical angiogenesis models; format: in vivo; conditions: two classical angiogenesis models

Kd ([5]; first value (site 1, bivalent), read-out: KD (C18)): 11 pM
Kd ([5]; value in parentheses (site 2, monovalent), read-out: KD (C18), value in parentheses): 5 pM
B1: LT3000: Murine anti-LPA monoclonal antibody clone B7, IgG1k, renamed Lpathomab, also known as LT3000; hybridoma 504B7.1, ATCC PTA-8420 (antibody, V domains shown)
VH: QVQLQQSGAELVRPGTSVKVSCKASGYGFINYLIEWIKQRPGQGLEWIGLINPGSDYTNYNENFKGKATLTADKSSSTAYMHLSSLTSEDSAVYFCARRFGYYGSGNYFDYWGQGTTLTVSS
VL: DVVMTQTPLSLPVSLGDQASISCTSGQSLVHINGNTYLHWYLQKPGQSPKLLIYKVSNLFSGVPDRFSGSGSGTDFTLKISRVEAEDLGVYFCSQSTHFPFTFGTGTKLEIK
MI, 18:1 LPA [1]: 100%
Migration, % Inhibition (over LPA taken as 100) [2]: 35* %
Invasion, % Inhibition (over LPA taken as 100) [3]: 95* %
LPA protection from death induced by chemotherapeutic agent (Taxol) ([4]; LPA responsive cells, 24 h): blocked the ability of LPA to protect cells from death
Apoptosis, % Induction (over LPA + TAXOL taken as 100) ([4]; Lpathomab 150 μg/mL, 1 μM Taxol, 1 μM 18:1 LPA, n = 1): 79%
Taxol-induced caspase activation ([4]; SKOV3, serum-containing culture medium): enhanced
time until fully distributed to the blood ([6]; i.p. administration): 6 to 12 h
half-life ([6]; i.v. administration, listed as murine antibody): ~96 h
LPA-stimulated migration [7]: inhibitory effect
metastatic spread of B16-F10 cells to lungs [8]: reduced
neovascularization [9]: inhibited
